Ends that are not written are not given here.
Experiments:
[1] = target: T1, hERα-LBD (ligand binding domain of estrogen receptor α) (human, UniProt P03372 297-554); test: fluorescence polarization, labelled peptide 10 nM, hERα-LBD titrated, estradiol present; 100 may stand for above the assay limits
T1 construct: Assayed with estradiol, diethylstilbestrol, genistein or tamoxifen present; the ligand is named under assay in each row
T1 sequence (looked up): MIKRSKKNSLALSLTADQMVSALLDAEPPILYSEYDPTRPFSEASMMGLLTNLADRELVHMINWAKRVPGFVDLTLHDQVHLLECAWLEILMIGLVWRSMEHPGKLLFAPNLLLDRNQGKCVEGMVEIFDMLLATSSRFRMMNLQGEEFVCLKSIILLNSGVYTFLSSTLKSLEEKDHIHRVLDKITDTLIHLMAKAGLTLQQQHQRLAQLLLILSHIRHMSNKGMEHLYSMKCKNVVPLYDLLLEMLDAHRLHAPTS
Description: (§1) The concentration of protein varied between 0.001-20 μM in the following way. In 96 well plates, hTRβ-LBD or hERα-LBD was serially diluted from 40 μM to 0.002 μM in binding buffer (50 mM Sodium Phosphate, 150 mM NaCl, pH 7.2, 1 mM DTT, 1 mM EDTA, 0.01% NP40, 10% glycerol), containing 200 μM ligand (T₃, for TRβ, or estradiol, diethylstilbestrol, genistein or tamoxifen for ERα).
(§2) Subsequently 10 μL of diluted protein was added to 10 μL of fluorescent coregulator peptide (20 nM) in 384-well plates yielding final protein concentrations of […] and 10 nM fluorescent peptide concentration. The samples were allowed to equilibriate for 30 minutes. Binding was then measured using fluorescence polarization (excitation λ at 485 nm, emission λ at 530 nm) on an Analyst AD (available from Molecular Devices).
(§3) All experiments were carried out in quadruplicate, with each iteration containing the positive and negative controls, and 10-12 dose points. The data were then fit using Klotz plots to determine IC₅₀ values using nonlinear regression analysis that fits the data to a modification of the model of Heyduk and Lee. (Heyduk et al., Proc. Natl. Acad. Sci., (1990), 1774; Heyduk et al., Nature, (1993), 364, 6437; Heyduk et al., Methods Enzymol., 274, 492. Further analysis was conducted using Hill and Scatchard plots to confirm number and homogeneity of binding sites as discussed hereinbelow.

[2] = target: T1, hERα-LBD (ligand binding domain of …); test: fluorescence polarization, labelled peptide 10 nM, hERα-LBD titrated, genistein present; 100 may stand for above the assay limits
Description: as §1, §2, §3

[3] = target: T2, hTRβ-LBD (ligand binding domain of thyroid hormone receptor β) (human, UniProt P10828 202-461); test: fluorescence polarization, hTRβ-LBD titrated, T3 present; Table 3 prints >AL (assay limits) for this pair
T2 construct: Assayed with the small-molecule ligand T3 present
T2 sequence (looked up): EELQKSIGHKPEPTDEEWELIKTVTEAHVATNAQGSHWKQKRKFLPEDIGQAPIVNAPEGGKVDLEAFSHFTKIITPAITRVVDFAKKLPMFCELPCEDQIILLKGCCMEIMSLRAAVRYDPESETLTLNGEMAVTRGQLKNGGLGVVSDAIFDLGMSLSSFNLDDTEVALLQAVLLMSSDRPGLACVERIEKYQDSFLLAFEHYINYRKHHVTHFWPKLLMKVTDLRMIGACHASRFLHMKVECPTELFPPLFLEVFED
Description: as §1, §2, §3

[4] = target: T1, hERα-LBD (ligand binding domain of …); test: fluorescence polarization, hERα-LBD titrated, estradiol present; repeats Table 4; 100 may stand for above the assay limits
Description: as §1, §2, §3

[5] = target: T1, hERα-LBD (ligand binding domain of …); test: fluorescence polarization, labelled peptide 10 nM, hERα-LBD titrated, diethylstilbestrol present; 100 may stand for above the assay limits
Description: as §1, §2, §3

Kd [1]: 100 µM | Kd [2]: 100 µM | Kd [3]: 100 µM | Kd [4]: 100 µM | Kd [5]: 100 µM
Binder: C(5‑iodoacetamidofluorescein)KKENNALLRYLLDRDDPSD [SRC3-3 coregulator peptide]
